Patent publication US20260042834A1 (HBM ALPHA THERAPEUTICS, published 2026)
Positions count from the first letter of the chain named. Where “and” joins values, the source holds several entries; their conditions need not be identical. Identical values can stand only once. Like-named read-outs stand apart in the source and are kept apart here.

Tests used:
Test in all cases: cell-based or functional assay
[1] = molecular target: T1, corticotropin-releasing hormone (CRH) peptide (human and mouse (same sequence), not fully specified)
T1 peptide: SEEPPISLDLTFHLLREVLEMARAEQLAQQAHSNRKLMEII

[2] = molecular target: T1, corticotropin-releasing hormone (CRH) …
[3] = molecular target: T1, corticotropin-releasing hormone (CRH) …

B1: PR302334 (antibody, human IgG1, kappa, V domains shown)
VH: EVKLVESGGGLVKPGGSLKLSCAASGFTFSTYAMSWVRQTPEKRLEWVASIRSGGTTYYPDSVKGRFTISRDNARNILYLQMSSLRSEDTAIYYCTRGIDWGQGTLVTVSA
VL: NIVMTQTPKFLLVSAGDRITITCKASQSVNNDVAWYQQKPGQSPKLLIYYASNRYTGVPDRFTGSGYGTDFTFTISTVQAEDLAVYFCQQDYSSWTFGGGTNLEIKR
With B1 the “hCRHR1 Luciferase Reporter Assay IC50” value [1] was 0.26 nM and 0.644 nM and the “mCrhr1 Luciferase Reporter Assay IC50” value [1] was 0.672 nM.

B2: PR302334-1 (antibody, human IgG1, kappa, V domains shown)
VH: B1 VH
VL: EIVMTQSPATLSVSPGERATLSCKASQSVNNDVAWYQQKPGQAPRLLIYYASNRYTGIPARFSGSGSGTEFTLTISSLQSEDFAVYYCQQDYSSWTFGGGTKVEIKR
For B2, the “hCRHR1 Luciferase Reporter Assay IC50” value [1] was 0.624 nM.

B3: PR302334-2 (antibody, human IgG1, kappa, V domains shown)
VH: B1 VH
VL: B2 VL with F83L, Y87F
With B3 the “hCRHR1 Luciferase Reporter Assay IC50” value [1] was 0.597 nM.

B4: PR302334-3 (antibody, human IgG1, kappa, V domains shown)
VH: B1 VH
VL: DIVMTQSPDSLAVSLGERATINCKASQSVNNDVAWYQQKPGQPPRLLIYYASNRYTGVPDRFSGSGSGTDFTLTISSLQAEDVAVYYCQQDYSSWTFGGGTKVEIKR
For B4, the “hCRHR1 Luciferase Reporter Assay IC50” value [1] was 0.542 nM.

B5: PR302334-4 (antibody, human IgG1, kappa, V domains shown)
VH: B1 VH
VL: B4 VL with V83L, Y87F
For B5, the “hCRHR1 Luciferase Reporter Assay IC50” value [1] was 0.553 nM.

B6: PR302334-5 (antibody, human IgG1, kappa, V domains shown)
VH: B1 VH
VL: DIQMTQSSLSASVSLGDRVTITCKASQSVNNDVAWYQQKPGKAPRLLIYYASNRYTGVPSRFSGSGSGTDFTFTISSLQPEDIATYYCQQDYSSWTFGGGTKVEIKR
For B6, the “hCRHR1 Luciferase Reporter Assay IC50” value [1] was 0.325 nM.

B7: PR302334-6 (antibody, human IgG1, kappa, V domains shown)
VH: B1 VH
VL: B6 VL with I83L, Y87F
B7 was tested, and the “hCRHR1 Luciferase Reporter Assay IC50” value [1] was 0.404 nM.

B8: PR302334-7 (antibody, human IgG1, kappa, V domains shown)
VH: EVQLVESGGGLVQPGGSLRLSCAASGFTFSTYAMSWVRQAPGKGLEWVASIRSGGTTYYPDSVKGRFTISRDNSKNTLYLQMNSLRAEDTAVYYCTRGIDWGQGTTVTVSS
VL: B2 VL
With B8 the “hCRHR1 Luciferase Reporter Assay IC50” value [1] was 0.996 nM.

B9: PR302334-8 (antibody, human IgG1, kappa, V domains shown)
VH: B8 VH
VL: B2 VL with F83L, Y87F
For B9, the “hCRHR1 Luciferase Reporter Assay IC50” value [1] was 0.816 nM and the “mCrhr1 Luciferase Reporter Assay IC50” value [1] was 2.61 nM.

B10: PR302334-9 (antibody, human IgG1, kappa, V domains shown)
VH: B8 VH
VL: B4 VL
For B10, the “hCRHR1 Luciferase Reporter Assay IC50” value [1] was 1.42 nM.

B11: PR302334-10 (antibody, human IgG1, kappa, V domains shown)
VH: B8 VH
VL: B4 VL with V83L, Y87F
In the case of B11, the “hCRHR1 Luciferase Reporter Assay IC50” value [1] is reported as 0.839 nM and the “mCrhr1 Luciferase Reporter Assay IC50” value [1] is reported as 2.66 nM.

B12: PR302334-11 (antibody, human IgG1, kappa, V domains shown)
VH: B8 VH
VL: B6 VL
In the case of B12, the “hCRHR1 Luciferase Reporter Assay IC50” value [1] is reported as 1 nM.

B13: PR302334-12 (antibody, human IgG1, kappa, V domains shown)
VH: B8 VH
VL: B6 VL with I83L, Y87F
In the case of B13, the “hCRHR1 Luciferase Reporter Assay IC50” value [1] is reported as 0.986 nM.

B14: PR302334-14 (antibody, human IgG1, kappa, V domains shown)
VH: B8 VH
VL: B1 VL
In the case of B14, the “hCRHR1 Luciferase Reporter Assay IC50” value [1] is reported as 0.468 nM.

B15: PR302334-15 (antibody, human IgG1, kappa, V domains shown)
VH: B8 VH with Q13K, A49S, S74A, T77S, T96A
VL: B1 VL
B15 was tested, and the “hCRHR1 Luciferase Reporter Assay IC50” value [1] was 5.12 nM.

B16: PR302334-16 (antibody, human IgG1, kappa, V domains shown)
VH: B8 VH with Q13K, S74A, T77S
VL: B1 VL
For B16, the “hCRHR1 Luciferase Reporter Assay IC50” value [1] was 0.339 nM.

B17: PR302334-17 (antibody, human IgG1, kappa, V domains shown)
VH: B8 VH with A49S, T77S, T96A
VL: B1 VL
With B17 the “hCRHR1 Luciferase Reporter Assay IC50” value [1] was 12.2 nM.

B18: PR302334-18 (antibody, human IgG1, kappa, V domains shown)
VH: B8 VH with T77S
VL: B1 VL
With B18 the “hCRHR1 Luciferase Reporter Assay IC50” value [1] was 0.279 nM.

B19: PR302334-22 (antibody, human IgG1, kappa, V domains shown)
VH: B8 VH with A49S, T77S, T96A
VL: B2 VL with F83L, Y87F
B19 was tested, and the “hCRHR1 Luciferase Reporter Assay IC50” value [1] was 0.92 nM.

B20: PR302341 (antibody, human IgG1, kappa, V domains shown)
VH: EVQLQQSGPELVKPGASVKMSCKASGYTFTDYFMKWVKQSHGESLEWIGVINPNNGDIFYNQKFKGKATLTVDKSSSTAFMQLNSLTSEDSAVYSCARGTDRALFAYWGQGTLVAVSA
VL: DVLMTQTPLSLPVSLGDQASISCRSGQSIVHSDGNTYLEWYLQRPGQSPRLLIYKVSNRFSGVPDRFSGSGSGTDFTLKISRVGAEDLGIYYCFQGSHIPWTFGGGTKLEVKR
With B20 the “mCrhr1 Luciferase Reporter Assay IC50” value [2] was 0.611 nM, the “hCRHR1 Luciferase Reporter Assay IC50” value [3] was 0.437 nM and the “mCrhr1 Luciferase Reporter Assay IC50” value [3] was 1.71 nM.

B21: PR302341-10 (antibody, human IgG1, kappa, V domains shown)
VH: QVQLVQSGAEVKKPGASVKVSCKASGYTFTDYFMKWVRQAPGQGLEWMGVINPNNGDIFYNQKFKGRVTMTVDKSTSTAYMELSSLRSEDTAVYYCARGTDRALFAYWGQGTLVTVSS
VL: DVVMTQTPLSSPVTLGQPASISCRSGQSIVHSDGNTYLEWYQQRPGQPPRLLIYKVSNRFSGVPDRFSGSGAGTDFTLKISRVEAEDLGVYYCFQGSHIPWTFGGGTKVEIKR
With B21 the “hCRHR1 Luciferase Reporter Assay IC50” value [2] was 0.11 nM, the “mCrhr1 Luciferase Reporter Assay IC50” value [2] was 0.29 nM and the “hCRHR1 Luciferase Reporter Assay IC50” value [3] was 0.342 nM. The “mCrhr1 Luciferase Reporter Assay IC50” value [3] was 1.6 nM.

B22: PR302341-17 (antibody, human IgG1, kappa, V domains shown)
VH: B21 VH with V72R, K74T, T76I, S85R, E89D
VL: B20 VL
For B22, the “hCRHR1 Luciferase Reporter Assay IC50” value [2] was 0.104 nM.

B23: PR302341-18 (antibody, human IgG1, kappa, V domains shown)
VH: B21 VH with T76I, S85R, E89D
VL: B20 VL
B23 was tested, and the “hCRHR1 Luciferase Reporter Assay IC50” value [2] was 0.169 nM.

B24: PR302341-19 (antibody, human IgG1, kappa, V domains shown)
VH: B21 VH with V72R, K74T, A79V
VL: B21 VL with T7S, S11L, P48S, A72S
In the case of B24, the “hCRHR1 Luciferase Reporter Assay IC50” value [2] is reported as 0.121 nM and the “mCrhr1 Luciferase Reporter Assay IC50” value [2] is reported as 0.365 nM.

B25: PR302341-20 (antibody, human IgG1, kappa, V domains shown)
VH: B21 VH with G44R, M70I, V72R, K74T, T76A
VL: B21 VL with T7S, S11L, P48S, A72S
With B25 the “hCRHR1 Luciferase Reporter Assay IC50” value [2] was 0.162 nM, the “mCrhr1 Luciferase Reporter Assay IC50” value [2] was 0.451 nM and the “hCRHR1 Luciferase Reporter Assay IC50” value [3] was 0.188 nM. For the same binder, the “mCrhr1 Luciferase Reporter Assay IC50” value [3] was 1.62 nM.

B26: PR302341-21 (antibody, human IgG1, kappa, V domains shown)
VH: B21 VH with G44R, M70I, T76A
VL: B21 VL with T7S, S11L, P48S, A72S
B26 was tested, and the “hCRHR1 Luciferase Reporter Assay IC50” value [2] was 0.177 nM and the “mCrhr1 Luciferase Reporter Assay IC50” value [2] was 0.541 nM.

B27: PR302341-22 (antibody, human IgG1, kappa, V domains shown)
VH: B21 VH with V72R, K74T, T76I, S85R, E89D
VL: B21 VL with T7S, S11L, P48S, A72S
With B27 the “hCRHR1 Luciferase Reporter Assay IC50” value [2] was 0.243 nM.

B28: PR302341-23 (antibody, human IgG1, kappa, V domains shown)
VH: B21 VH with T76I, S85R, E89D
VL: B21 VL with T7S, S11L, P48S, A72S
For B28, the “hCRHR1 Luciferase Reporter Assay IC50” value [2] was 0.043 nM, the “mCrhr1 Luciferase Reporter Assay IC50” value [2] was 0.111 nM and the “hCRHR1 Luciferase Reporter Assay IC50” value [3] was 0.351 nM. For the same binder, the “mCrhr1 Luciferase Reporter Assay IC50” value [3] was 1.19 nM.

B29: PR302341-24 (antibody, human IgG1, kappa, V domains shown)
VH: B21 VH with G44R, M70I, T76A
VL: B21 VL
In the case of B29, the “hCRHR1 Luciferase Reporter Assay IC50” value [2] is reported as 0.192 nM and the “mCrhr1 Luciferase Reporter Assay IC50” value [2] is reported as 0.156 nM.

B30: PR302341-25 (antibody, human IgG1, kappa, V domains shown)
VH: B21 VH with G44R, M70I, T76A
VL: B21 VL with S11L, P12S, L15P, Q42L, R44K, P48S, R50Q, A72S
For B30, the “hCRHR1 Luciferase Reporter Assay IC50” value [2] was 0.711 nM.

B31: PR302341-26 (antibody, human IgG1, kappa, V domains shown)
VH: B21 VH with T76I, S85R, E89D
VL: B21 VL
B31 was tested, and the “hCRHR1 Luciferase Reporter Assay IC50” value [2] was 0.273 nM.

B32: PR302341-27 (antibody, human IgG1, kappa, V domains shown)
VH: B21 VH with T76I, S85R, E89D
VL: B21 VL with S11L, P12S, L15P, Q42L, R44K, P48S, R50Q, A72S
In the case of B32, the “hCRHR1 Luciferase Reporter Assay IC50” value [2] is reported as 0.518 nM.
